Three molecules from article PMC9204741 (2022) can be followed below.

One test addresses LonA-His6 (B. subtilis) (UniProt P37945).
The target in test [1] is T1, His6-SmiA (B. subtilis).
T1 chain: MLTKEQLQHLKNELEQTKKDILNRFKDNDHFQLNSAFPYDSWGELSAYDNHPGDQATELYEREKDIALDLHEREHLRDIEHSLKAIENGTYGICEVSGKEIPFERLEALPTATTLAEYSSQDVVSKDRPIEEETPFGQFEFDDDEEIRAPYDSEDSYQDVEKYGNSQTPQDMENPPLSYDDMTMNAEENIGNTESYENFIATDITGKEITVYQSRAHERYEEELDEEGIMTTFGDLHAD
The test can be described thus: BLI. On the technique in general: BLI is a label-free optical method that tracks binding on a fibre tip over time.

Test [2] concerns the target T1, His6-SmiA. The test can be described thus: BLI; His6-SmiA (300 nM) loaded on anti-penta-His (HIS1K) biosensors; GST-SwrA variants 50-400 nM as analyte; 1x PBS, 1x kinetics buffer, 2% dialyzed fetal bovine serum, 0.5 mM TCEP; 1:1 binding model; Octet RED96.

Sequence of LonA-His6 (B. subtilis) (P37945 whole entry): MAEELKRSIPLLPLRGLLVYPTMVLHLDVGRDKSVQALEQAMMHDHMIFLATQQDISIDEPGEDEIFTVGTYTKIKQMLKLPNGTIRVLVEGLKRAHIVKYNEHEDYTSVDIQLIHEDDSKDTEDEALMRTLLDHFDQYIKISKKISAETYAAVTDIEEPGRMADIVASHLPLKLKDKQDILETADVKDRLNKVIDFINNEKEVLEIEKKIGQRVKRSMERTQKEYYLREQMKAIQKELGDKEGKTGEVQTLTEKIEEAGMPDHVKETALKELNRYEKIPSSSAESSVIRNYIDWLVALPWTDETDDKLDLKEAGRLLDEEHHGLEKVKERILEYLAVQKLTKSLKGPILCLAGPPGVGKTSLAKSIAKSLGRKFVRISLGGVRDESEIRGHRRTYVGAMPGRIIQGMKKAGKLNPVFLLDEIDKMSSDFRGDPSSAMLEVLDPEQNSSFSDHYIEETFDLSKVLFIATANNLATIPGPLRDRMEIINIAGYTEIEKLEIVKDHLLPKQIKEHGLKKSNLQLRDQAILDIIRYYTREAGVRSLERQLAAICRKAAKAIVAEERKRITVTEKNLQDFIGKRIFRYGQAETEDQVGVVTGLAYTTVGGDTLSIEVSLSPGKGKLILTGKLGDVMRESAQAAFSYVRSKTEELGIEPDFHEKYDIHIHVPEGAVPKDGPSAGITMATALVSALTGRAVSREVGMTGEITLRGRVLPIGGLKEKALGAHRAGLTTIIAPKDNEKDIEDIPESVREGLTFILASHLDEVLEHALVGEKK

In the case of “GST-mNG-SwrA (from UniProt O32266 1-117) (natural protein)”, in the test with LonA-His6 (B. subtilis), the Km of in vitro proteolysis of GST-mNG-SwrA (loss of fluorescence) with 0.25 μM LonA and 0.5 μM SmiA worked out at 1.14 µM.

B1: GST-SwrA^Δ101–117 (domain or fragment)
chain: MKRASIVREKKYYELVEQLKDRTQDVTFSATKALSLLMLFSRYLVNYTNVESVNDINEECAKHYFNYLMKNHKRLGINLTDIKRSMHLISGLLDVDVNHY
For B1, in the test with His6-SmiA [1], the affinity, expressed as Kd, was 0.0432 µM. Besides, in the test with His6-SmiA [2], the Kd (commonly the concentration at which binding is half-saturated) amounted to 0.0432 µM; the koff (as a rule, the first-order rate constant of dissociation) is 0.00418 s⁻¹; the kon (as a rule, the second-order rate constant of association) came out at 96800 M⁻¹ s⁻¹.

B2: GST-SwrA (natural protein)
chain: MKRASIVREKKYYELVEQLKDRTQDVTFSATKALSLLMLFSRYLVNYTNVESVNDINEECAKHYFNYLMKNHKRLGINLTDIKRSMHLISGLLDVDVNHYLKDFSLSNVTLWMTQER
B2: in the test with His6-SmiA [1], the Kd was found to be 0.0609 µM. Moreover, in the test with His6-SmiA [2], the koff amounted to 0.0093 s⁻¹ and the on-rate (kon) was determined as 153000 M⁻¹ s⁻¹.
